In publication doi:10.1101/511345 (bioRxiv, 2019):

B1: Quasibacillus thermotolerans (Qs) IMEF encapsulin capsid protein, assembled T = 4 shell (natural protein)
chain: MNKSQLYPDSPLTDQDFNQLDQTVIEAARRQLVGRRFIELYGPLGRGMQSVFNDIFMESHEAKMDFQGSFDTEVESSRRVNYTIPMLYKDFVLYWRDLEQSKALDIPIDFSVAANAARDVAFLEDQMIFHGSKEFDIPGLMNVKGRLTHLIGNWYESGNAFQDIVEARNKLLEMNHNGPYALVLSPELYSLLHRVHKDTNVLEIEHVRELITAGVFQSPVLKGKSGVIVNTGRNNLDLAISEDFETAYLGEEGMNHPFRVYETVVLRIKRPAAICTLIDPEE
B2: Qs IMEF cargo protein, purified alone and crystallised (natural protein)
chain: MKEELDAFHQIFTTTKEAIERFMAMLTPVIENAEDDHERLYYHHIYEEEEQRLSRLDVLIPLIEKFQDETDEGLFSPSNNAFNRLLQELNLEKFGLHNFIEHVDLALFSFTDEERQTLLKELRKDAYEGYQYVKEKLAEINARFDHDYADPHAHHDEHRDHLADMPSAGSSHEEVQPVAHKKKGFTVGSLIQ

Tests used:
cryo-EM structure = target: the molecule itself; experiment: cryo-EM structure
crystal structure = target: the molecule itself; experiment: crystal structure

Protein | stoichiometry N (cryo-EM structure) | stoichiometry N (crystal structure)
B1 | 240 | 
B2 |  | 2
